In patent US20140335510, “NANOPARTICLE SENSOR FOR NUCLEIC ACID-PROTEIN INTERACTION” (Agency for Science, Technology and Research, published 2014):

Target: T1, FoxA1 (full-length) (UniProt P55317 P55317:1-472)
T1 sequence: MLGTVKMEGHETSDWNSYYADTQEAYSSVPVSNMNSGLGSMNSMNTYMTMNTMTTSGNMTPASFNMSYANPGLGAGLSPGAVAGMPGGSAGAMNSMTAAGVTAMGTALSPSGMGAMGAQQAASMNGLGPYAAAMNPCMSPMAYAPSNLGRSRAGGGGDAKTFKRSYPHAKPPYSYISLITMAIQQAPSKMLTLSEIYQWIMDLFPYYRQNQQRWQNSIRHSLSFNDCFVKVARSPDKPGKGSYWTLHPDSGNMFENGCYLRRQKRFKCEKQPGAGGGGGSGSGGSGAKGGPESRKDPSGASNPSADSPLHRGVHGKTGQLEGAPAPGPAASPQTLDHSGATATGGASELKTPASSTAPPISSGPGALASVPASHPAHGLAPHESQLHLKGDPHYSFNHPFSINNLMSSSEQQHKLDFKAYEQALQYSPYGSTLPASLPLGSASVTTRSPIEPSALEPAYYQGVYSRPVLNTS
Assay: negative control; no fluorescence change of ACP-430 or CCP-410 on adding FoxA1
Details: tags: N-terminal His-MBP fusion, pHISMBP vector, E. coli BL21(DE3); label: 5'-thiol-AuNP on sense strand (sensor)

B1: mtR3 (dsDNA)
DNA 1: AAAGTATTCAGAATCCATG
DNA 2: CATGGATTCTGAATACTTT
B1: no binding.
